Laboratory results reported in patent publication US20150125397A1, “DUAL SPECIFIC BINDING PROTEINS DIRECTED AGAINST IMMUNE CELL RECEPTORS AND AUTOANTIGENS” (ABBVIE INC., priority 2013, published 2015).

How the values were obtained:
DNA = assay: Antinuclear antibody (ANA) test; format: binding; design: key to ANA score, relative result: (X)-(XXX) indicates relative results; (XX): (X)-(XXX) indicates relative results; (X)-(XXX) indicates relative results; details: for ANA score / ANA score, relative result: ANA staining at 10 μg/ml
Experimental: The cloned BWR4 and PA4 antibodies as well as the DVD-Ig proteins were tested for ANA reactivity using the ANA test kit. Briefly, the DVD-Ig proteins and antibodies were diluted to […] in blocking buffer (1% BSA in PBS). The DVD-Ig proteins and antibodies were added to separate wells of an ANA slide at 50 μl/well and incubated in a moist chamber for 2 hours at room temperature (RT). The wells were then washed 3× with PBS. To detect bound antibodies, Alexa Fluor 488 conjugated goat α-human IgG (α-hIgG) was then added at a dilution of 1:1,000 and the slide incubated in a moist chamber for 1 hour. Unbound detecting antibody was removed by immersing the slide in a jar containing PBS and incubating for 10 minutes at RT with gentle rocking. The prior step was repeated 2× and 10 μl of Prolong® Gold Antifade was added to each well and a 24 mm×60 mm #1 cover glass seated on top. The covered slide was incubated overnight at RT and then sealed by applying clear nail polish to the edges. Binding of the DVD-Ig proteins and antibodies to the slides was assessed by fluorescence microscopy.
DVD-Ig proteins DVD3751-DVD3760 were characterized by antinuclear antibody (ANA) staining at 10 μg/ml according to the method of Example 2.4.
ANA: HEp-2 human tissue culture substrate slides were incubated with 5 μg/ml of the anti-DNA-IgG2a or the DVD-Ig™ binding protein for 2 hours at RT. The slides were washed and bound antibodies were detected with Alexa-488 goat anti-human antibody or DyLight 488 goat anti-mouse antibody.

AM14 WT B cells = assay: [3H]thymidine incorporation, BCR/TLR9 stimulation of AM14 WT B cells; format: cell-based, mouse; design: key to 3H incorporation AM14 WT, relative result: (X)-(XXX) indicates relative results; (XX): (X)-(XXX) indicates relative results; (X)-(XXX) indicates relative results; level of 3H incorporation / 3H incorporation AM14 WT: dose or concentration left out as unconfirmed; details: for 3H incorporation AM14 WT: 24 hours, then 6 hours pulse
Text: The AM14 B cell receptor (BCR) transgenic mouse has been described previously (Sweet et al. (2010) Autoimmun 43(8): 607-18). Briefly, AM14 is a BCR comprising the AM14 heavy chain and the Vk8 light chain that recognizes murine IgG2a (mIgG2a) of the “a” allotype. Between 95-98% of B cells in a mouse positive for the AM14 heavy chain and Vk8 light chain express the AM14 BCR. To generate AM14 B cells that are deficient in TLR9, TLR7 or FcγRIIB, the AM14 and Vk8 genes were bred to the appropriate knock out mice.
Primary murine B cells were purified by positive selection using BD Imag™ CD45R/B220 magnetic particles (BD Biosciences, San Jose, Calif.). Briefly, B cells were cultured in RPMI containing, pencillin-streptomycin, β-mercaptoethanol, and 5% heat-inactivated fetal calf serum (FCS) in 96 well flat bottom plates at a density of 4×10^5 cells/well. For stimulation through the BCR and TLR9, B cells were treated with a titration of 0.3 μg/ml-0.03 μg/ml of PA4 or 5 μg/ml to 0.15 μg/ml of a DVD-Ig protein (DVD3751, DVD3752, DVD3754, DVD3755, DVD3759 and DVD3760), unless otherwise noted. Cells were also treated with 1 μg/ml 1826, an experimental ligand for TLR9, as a control. After 24 hours, the cells were pulsed for 6 hours with [3H]thymidine (Perkin Elmer, Waltham Mass.). Incorporation of [3H]thymidine was quantified via a liquid scintillation beta counter (Trilux 1450 MicroBeta, PerkinElmer) according to standard methods.
DVD-Ig proteins DVD3751-DVD3760 were characterized by ^3H incorporation at […] according to the method of Example 2.6.

| Molecule | level of ANA staining (DNA; 10 μg/ml, among DVD3751-DVD3760) | ANA score (DNA) | ANA score, relative result (DNA) | ANA, immunofluorescent HEp-2 staining (DNA; Example 6, 5 μg/ml, FIG. 8C) | 3H incorporation AM14 WT, relative result (AM14 WT B cells) | 3H incorporation AM14 WT (AM14 WT B cells) | level of 3H incorporation (AM14 WT B cells; among DVD3751-DVD3760) |
| --- | --- | --- | --- | --- | --- | --- | --- |
| DVD3754: DVD-Ig: VD1 DNA(PA4), SL linker, VD2 mIgM (B7.6); heavy SEQ ID NO 54, light 55 (antibody) heavy: EVQLVESGGGLVKPGGSLKLSCVASGFTFSTYAMSWVRQTPTKRLEWVATISRGGVSTYYPDTVKGRFTISRDNAKNTLYLQMSSLRSEDTAMYYCARPPTIVTTWFAYWGQGTLVTVSSASTKGPQVQLKESGPGLVKPSLTLSLTCTVSGFSLNGYGVIWVRQPPGKGLEWMGVIWGNGNTNYNSTLKSRLSISRDTSKSQVFLKMNNLQTEDTAMYFCARSENYYSSPGYFAYWGQGTLVTVSS light: DVVMTQTPLSLPVSLGDQASISCRSSQSLVHSNGNTYLHWYLQKPGQSPKLLIYKVSNRFSGVPDRFSGSGSGTDFTLKISRVEAEDLGAYFCSQSTHVPYTFGGPTRLEIKRTVAAPSVFIFPPNTVMTQSPTSMFISVGDRVTMNCKASQNVGSDVDWYQQKTGQSPKLLISGTSNRYTGVPDRFTGSGSGTDFTLTISNMQAEDLAVYYCLQYNYNPTFGAGTKLELKR | highest level of staining | 4.5 | (XXX) | high ANA score | (XXX) | (35214) | highest level of ^3H incorporation |
| DVD3759: DVD-Ig: VD1 mIgM (B7.6), SL linker, VD2 DNA(PA4); heavy SEQ ID NO 64, light 65 (antibody) heavy: QVQLKESGPGLVKPSLTLSLTCTVSGFSLNGYGVIWVRQPPGKGLEWMGVIWGNGNTNYNSTLKSRLSISRDTSKSQVFLKMNNLQTEDTAMYFCARSENYYSSPGYFAYWGQGTLVTVSSASTKGPEVQLVESGGGLVKPGGSLKLSCVASGFTFSTYAMSWVRQTPTKRLEWVATISRGGVSTYYPDTVKGRFTISRDNAKNTLYLQMSSLRSEDTAMYYCARPPTIVTTWFAYWGQGTLVTVSS light: NTVMTQSPTSMFISVGDRVTMNCKASQNVGSDVDWYQQKTGQSPKLLISGTSNRYTGVPDRFTGSGSGTDFTLTISNMQAEDLAVYYCLQYNYNPTFGAGTKLELKRTVAAPSVFIFPPDVVMTQTPLSLPVSLGDQASISCRSSQSLVHSNGNTYLHWYLQKPGQSPKLLIYKVSNRFSGVPDRFSGSGSGTDFTLKISRVEAEDLGAYFCSQSTHVPYTFGGPTRLEIKR | – | 3.5 | (XX) | – | (XX) | (18554) | – |
